# Measured values as given in the array DNA melting data of Ke et al..
# Assay: melting temperature; melt of duplexes
# Conditions: sodium 0.0675 M; strand 1 µM
row,Substance,Tm
1,CGACGTGCATTATGTGCTG+CAGCACATCTTGCACGTCG (((((((((..((((((((+))))))))..))))))))),51.1 °C
2,CGACGTGCGCAATGTGCTG+CAGCACATCGCGCACGTCG ((((((((((.((((((((+)))))))).)))))))))),60.3 °C
3,CGACGTGCAACATGTGCTG+CAGCACATGGTGCACGTCG (((((((((.(((((((((+))))))))).))))))))),60 °C
4,CGACGTGCCCAATGTGCTG+CAGCACATTGAGCACGTCG ((((((((.((((((((((+)))))))))).)))))))),57.6 °C
5,CGACGTGCAGTATGTGCTG+CAGCACATTGCGCACGTCG ((((((((...((((((((+))))))))...)))))))),49.3 °C
6,CGACGTGCCTAATGTGCTG+CAGCACATGCCGCACGTCG ((((((((...((((((((+))))))))...)))))))),48.5 °C
7,CGACGTGCAGAATGTGCTG+CAGCACATTTAGCACGTCG ((((((((..(((((((((+)))))))))..)))))))),53.3 °C
8,CGACGTGCAGGATGTGCTG+CAGCACATGTCGCACGTCG ((((((((...((((((((+))))))))...)))))))),51.4 °C
9,CGACGTGCTTAATGTGCTG+CAGCACATGCTGCACGTCG ((((((((...((((((((+))))))))...)))))))),49.1 °C
10,CGACGTGCGAGATGTGCTG+CAGCACATAGGGCACGTCG ((((((((...((((((((+))))))))...)))))))),50.7 °C
11,CGACGTGCGTGATGTGCTG+CAGCACATACCGCACGTCG (((((((((..((((((((+))))))))..))))))))),55.3 °C
12,CGACGTGCCAAATGTGCTG+CAGCACATGTGGCACGTCG ((((((((((.((((((((+)))))))).)))))))))),58.5 °C
13,CGACGTGCCAGATGTGCTG+CAGCACATTATGCACGTCG ((((((((...((((((((+))))))))...)))))))),50.5 °C
14,CGACGTGCCTTATGTGCTG+CAGCACATGAAGCACGTCG ((((((((.(.((((((((+)))))))).).)))))))),50.5 °C
15,CGACGTGCCCGATGTGCTG+CAGCACATCCTGCACGTCG ((((((((..(((((((((+)))))))))..)))))))),52.5 °C
16,CGACGTGCTCTATGTGCTG+CAGCACATGTAGCACGTCG (((((((((..((((((((+))))))))..))))))))),52.3 °C
17,CGACGTGCGGAATGTGCTG+CAGCACATAAAGCACGTCG ((((((((...((((((((+))))))))...)))))))),55.5 °C
18,CGACGTGCCAAATGTGCTG+CAGCACATGTTGCACGTCG ((((((((.(.((((((((+)))))))).).)))))))),50.5 °C
19,CGACGTGCTATATGTGCTG+CAGCACATGTTGCACGTCG ((((((((.(.((((((((+)))))))).).)))))))),52.6 °C
20,CGACGTGCTGCATGTGCTG+CAGCACATTTAGCACGTCG (((((((((..((((((((+))))))))..))))))))),51 °C
21,CGACGTGCCTCATGTGCTG+CAGCACATTGAGCACGTCG ((((((((...((((((((+))))))))...)))))))),51.4 °C
22,CGACGTGCGGTATGTGCTG+CAGCACATCACGCACGTCG (((((((((..((((((((+))))))))..))))))))),56.7 °C
23,CGACGTGCGAAATGTGCTG+CAGCACATTGTGCACGTCG ((((((((..(((((((((+)))))))))..)))))))),52.4 °C
24,CGACGTGCTGGATGTGCTG+CAGCACATTTGGCACGTCG ((((((((...((((((((+))))))))...)))))))),51.8 °C
25,CGACGTGCTTAATGTGCTG+CAGCACATGAGGCACGTCG ((((((((.(.((((((((+)))))))).).)))))))),52.7 °C
26,CGACGTGCTGTATGTGCTG+CAGCACATGTCGCACGTCG ((((((((...((((((((+))))))))...)))))))),49.3 °C
27,CGACGTGCTTAATGTGCTG+CAGCACATAGGGCACGTCG ((((((((...((((((((+))))))))...)))))))),50 °C
28,CGACGTGCATCATGTGCTG+CAGCACATCGGGCACGTCG ((((((((...((((((((+))))))))...)))))))),47.9 °C
